Measurements reported in paper doi:10.1101/2025.08.18.670960.

Biological target: UNC-119 tagged with the C-terminal fragment of Venus (C. elegans) (UniProt Q10658)
Assay: split reporter (BiFC, NanoBiT); BiFC in AWC neurons of wild-type animals: VC::UNC-119 with ODR-3::VN variants; read-out is percent of transgenic animals with signal; free VN as negative control

Chain of UniProt Q10658 (Q10658 whole entry, the tested form may be a part): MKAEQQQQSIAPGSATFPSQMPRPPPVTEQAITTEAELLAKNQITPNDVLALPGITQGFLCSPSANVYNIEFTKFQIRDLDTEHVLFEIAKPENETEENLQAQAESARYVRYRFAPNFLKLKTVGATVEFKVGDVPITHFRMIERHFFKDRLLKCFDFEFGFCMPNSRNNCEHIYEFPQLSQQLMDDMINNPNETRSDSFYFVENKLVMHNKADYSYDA

Substance | percent of transgenic animals with BiFC signal [%]
ODR-3^WT tagged with the N-terminal Venus fragment (from UniProt Q18434 1-356) (natural protein) | 81
ODR-3^A328P tagged with the N-terminal Venus fragment (from UniProt Q18434 1-356) (natural protein) | 51
